Series [1] has as its target T1, AbdA (Hox);Exd/Hth-HM;Grh (Drosophila melanogaster?;Drosophila …, UniProt P29555;P40427;O46339;P13002 261-590;1-376;127-211;551-1333, ||). Kind of series: EMSA; EMSA, 20 ul, 30 min, room temperature; 5X buffer as printed: 20% glycerol, 1 mg/ml BSA, 2.5 mM EDTA, '50mM 1M tris' pH 7.5, 50 mM KCl, 5 mM MgCl2, 2.5 mM DTT, 90 ug/ml poly(dI-dC); proteins 100-200 ng. The note with it: protein: recombinant;recombinant;recombinant; tags: 6xHis;6xHis;6xHis; copies: 1;1;1;2.
Target sequence in this assay (P29555 261-590, chain 1 of 4, one chain of several): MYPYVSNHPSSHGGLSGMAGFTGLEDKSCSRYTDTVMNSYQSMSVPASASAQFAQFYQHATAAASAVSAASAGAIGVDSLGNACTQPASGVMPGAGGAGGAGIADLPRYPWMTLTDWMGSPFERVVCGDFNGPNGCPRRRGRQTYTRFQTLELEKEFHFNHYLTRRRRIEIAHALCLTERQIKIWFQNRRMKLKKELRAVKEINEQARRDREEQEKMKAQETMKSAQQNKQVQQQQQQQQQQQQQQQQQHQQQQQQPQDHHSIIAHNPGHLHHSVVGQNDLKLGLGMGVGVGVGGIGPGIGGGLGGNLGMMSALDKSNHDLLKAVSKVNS
Target sequence in this assay (P13002 551-1333, chain 4 of 4, one chain of several): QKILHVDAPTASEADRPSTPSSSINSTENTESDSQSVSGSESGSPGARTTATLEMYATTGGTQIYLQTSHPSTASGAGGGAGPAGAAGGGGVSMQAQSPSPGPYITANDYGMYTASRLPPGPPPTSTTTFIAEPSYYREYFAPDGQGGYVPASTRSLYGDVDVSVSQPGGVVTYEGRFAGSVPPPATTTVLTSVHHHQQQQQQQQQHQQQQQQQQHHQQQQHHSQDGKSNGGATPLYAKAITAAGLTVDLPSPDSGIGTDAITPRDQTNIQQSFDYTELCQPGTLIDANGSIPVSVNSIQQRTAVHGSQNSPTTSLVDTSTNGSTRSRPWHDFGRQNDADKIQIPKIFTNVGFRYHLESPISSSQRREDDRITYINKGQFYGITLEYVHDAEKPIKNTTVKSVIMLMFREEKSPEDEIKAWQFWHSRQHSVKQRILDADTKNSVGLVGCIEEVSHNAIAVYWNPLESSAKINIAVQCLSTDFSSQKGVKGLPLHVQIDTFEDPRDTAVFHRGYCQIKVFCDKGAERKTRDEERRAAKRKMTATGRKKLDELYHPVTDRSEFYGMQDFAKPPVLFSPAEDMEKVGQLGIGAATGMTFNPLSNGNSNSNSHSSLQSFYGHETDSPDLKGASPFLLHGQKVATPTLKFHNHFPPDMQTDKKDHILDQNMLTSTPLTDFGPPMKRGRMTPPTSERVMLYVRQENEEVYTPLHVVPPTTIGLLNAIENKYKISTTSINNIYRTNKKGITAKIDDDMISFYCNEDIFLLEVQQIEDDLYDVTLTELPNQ

Series [2] addresses T2, AbdA (Hox);Exd/Hth-HM (Drosophila melanogaster?;Drosophila …, UniProt P29555;P40427;O46339 261-590;1-376;127-211, |). The description is as above. As to conditions: protein: recombinant;recombinant; tags: 6xHis;6xHis; copies: 1;1;1.
Series [3] has as its target T3, Grh (UniProt P13002 551-1333). Described as above. As to conditions: protein: recombinant; tags: 6xHis; chain copies: 2.
Series [4] has as its target T4, AbdA (Hox) (UniProt P29555 261-590). The series is described as above. The note with it: protein: recombinant; tags: 6xHis.
The next series concerns the target AbdA (Hox);Grh (Drosophila melanogaster?;Drosophila …, UniProt P29555;P13002 261-590;551-1333, |). The description is as above. As to conditions: protein: recombinant;recombinant; tags: 6xHis;6xHis; copies: 1;2.
In series [5] the target is T5, Exd/Hth-HM (UniProt P40427;O46339 1-376;127-211).
T5 sequence 1: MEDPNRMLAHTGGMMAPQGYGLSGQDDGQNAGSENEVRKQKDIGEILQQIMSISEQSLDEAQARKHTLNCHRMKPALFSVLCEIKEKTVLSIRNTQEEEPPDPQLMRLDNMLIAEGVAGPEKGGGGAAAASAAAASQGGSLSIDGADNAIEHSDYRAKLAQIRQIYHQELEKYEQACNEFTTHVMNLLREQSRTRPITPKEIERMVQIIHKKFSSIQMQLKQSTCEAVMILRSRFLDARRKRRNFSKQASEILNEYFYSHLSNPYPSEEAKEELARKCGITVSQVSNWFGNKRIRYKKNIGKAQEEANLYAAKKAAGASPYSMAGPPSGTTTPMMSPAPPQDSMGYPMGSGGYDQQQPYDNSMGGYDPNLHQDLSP
T5 sequence 2: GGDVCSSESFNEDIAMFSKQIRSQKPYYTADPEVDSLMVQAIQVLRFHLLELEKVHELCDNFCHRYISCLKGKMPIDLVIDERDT
The description is as above. The note with it: protein: recombinant; tags: 6xHis; copies: 1;1.

The target of series [6] is T2, AbdA (Hox);Exd/Hth-HM. Kind of series: EMSA; intact in text; slightly reduced per legend; EMSA, 20 ul, 30 min, room temperature; 5X buffer as printed: 20% glycerol, 1 mg/ml BSA, 2.5 mM EDTA, '50mM 1M tris' pH 7.5, 50 mM KCl, 5 mM MgCl2, 2.5 mM DTT, 90 ug/ml poly(dI-dC); proteins 100-200 ng. The note with it: protein: recombinant;recombinant; tags: 6xHis;6xHis; copies: 1;1;1.
Target sequence in this assay (P29555 261-590, one chain of several): as the sequence (P29555 261-590, chain 1 of 4, one chain of several) above

Series [7] has as its target T4, AbdA (Hox). Kind of series: EMSA; 100 and 200 ng; EMSA, 20 ul, 30 min, room temperature; 5X buffer as printed: 20% glycerol, 1 mg/ml BSA, 2.5 mM EDTA, '50mM 1M tris' pH 7.5, 50 mM KCl, 5 mM MgCl2, 2.5 mM DTT, 90 ug/ml poly(dI-dC); proteins 100-200 ng. As to conditions: protein: recombinant; tags: 6xHis.
Series [8] deals with T5, Exd/Hth-HM. The experiment in a line: EMSA; 200 ng; another sentence claims strong binding of each protein; EMSA, 20 ul, 30 min, room temperature; 5X buffer as printed: 20% glycerol, 1 mg/ml BSA, 2.5 mM EDTA, '50mM 1M tris' pH 7.5, 50 mM KCl, 5 mM MgCl2, 2.5 mM DTT, 90 ug/ml poly(dI-dC); proteins 100-200 ng. The note with it: protein: recombinant; tags: 6xHis; copies: 1;1.

The target of series [9] is T3, Grh. The experiment in a line: EMSA; no significant decrease; EMSA, 20 ul, 30 min, room temperature; 5X buffer as printed: 20% glycerol, 1 mg/ml BSA, 2.5 mM EDTA, '50mM 1M tris' pH 7.5, 50 mM KCl, 5 mM MgCl2, 2.5 mM DTT, 90 ug/ml poly(dI-dC); proteins 100-200 ng. As to conditions: protein: recombinant; tags: 6xHis; chain copies: 2.
Series [10] concerns the target T1, AbdA (Hox);Exd/Hth-HM;Grh. The experiment in a line: EMSA; intact; slightly reduced intensity per legend; EMSA, 20 ul, 30 min, room temperature; 5X buffer as printed: 20% glycerol, 1 mg/ml BSA, 2.5 mM EDTA, '50mM 1M tris' pH 7.5, 50 mM KCl, 5 mM MgCl2, 2.5 mM DTT, 90 ug/ml poly(dI-dC); proteins 100-200 ng. As to conditions: protein: recombinant;recombinant;recombinant; tags: 6xHis;6xHis;6xHis; copies: 1;1;1;2.
Target sequence in this assay (P29555 261-590, chain 1 of 2): as the sequence (P29555 261-590, chain 1 of 4, one chain of several) above
Target sequence in this assay (P13002 551-1333, chain 4 of 2): as the sequence (P13002 551-1333, chain 4 of 4, one chain of several) above

T3 sequence (P13002 551-1333): as the sequence (P13002 551-1333, chain 4 of 4, one chain of several) above
T4 sequence (P29555 261-590): as the sequence (P29555 261-590, chain 1 of 4, one chain of several) above
AbdA (Hox);Grh, sequence (P29555 261-590, chain 1 of 2): as the sequence (P29555 261-590, chain 1 of 4, one chain of several) above
AbdA (Hox);Grh, sequence (P13002 551-1333, chain 2 of 2): as the sequence (P13002 551-1333, chain 4 of 4, one chain of several) above

B1: motif-27 (dsDNA)
DNA 1: TATATGTGGAACCACCTTGAAAGTCTACTGCCTGATTAGT
DNA 2: ACTAATCAGGCAGTAGACTTTCAAGGTGGTTCCACATATA
Take B1: the binding result (in [1]; in the series with AbdA (Hox);Exd/Hth-HM [2]; with Grh [3]) was “binds” throughout.

B2: motif-31 (dsDNA)
DNA 1: ACACAATTTTCTAAGATCCACTGGAATCGGTATGCCGATAGTT
DNA 2: AACTATCGGCATACCGATTCCAGTGGATCTTAGAAAATTGTGT
As for B2, the binding result with AbdA (Hox) [4] was “binds”; in series [1], “no binding”; with AbdA (Hox);Exd/Hth-HM [2], “binds”; with Grh [3], “binds”.

B3: motif-25 (dsDNA)
DNA 1: CGGGATATCACCAAACCATAGAAAATTTGCGGTACA
DNA 2: TGTACCGCAAATTTTCTATGGTTTGGTGATATCCCG
As for B3, the binding result is “no binding” in series [1], “binds” in the series with AbdA (Hox);Exd/Hth-HM [2] and “binds” in the series with Grh [3].

B4: motif-28 (dsDNA)
DNA 1: AAGCCGAGCCTGAATCAGGTACTCAAATTGTCGC
DNA 2: GCGACAATTTGAGTACCTGATTCAGGCTCGGCTT
Turning to B4, the binding result in [1] is listed as “no binding”; with AbdA (Hox);Grh it was “binds”; in the series with AbdA (Hox);Exd/Hth-HM [2], “binds”; with Grh [3] it was “binds”.

B5: motif-23 (dsDNA)
DNA 1: CTATTATCACTATTGCTTTGCTTCCTCAAAACCTTCATTCGA
DNA 2: TCGAATGAAGGTTTTGAGGAAGCAAAGCAATAGTGATAATAG
Regarding B5, the binding result in the series with AbdA (Hox);Exd/Hth-HM [2] and in the series with Grh [3] was “binds” throughout.

B6: motif-33 (dsDNA)
DNA 1: TACTGCCTGATTAGTGTAAATAATTGCCAGTCCTTG
DNA 2: CAAGGACTGGCAATTATTTACACTAATCAGGCAGTA
B6: the binding result is listed as “binds” in the series with AbdA (Hox) [4]; “no binding” in [1]; “binds” with AbdA (Hox);Grh; “binds” in the series with AbdA (Hox);Exd/Hth-HM [2]; “binds” with Grh [3]; “binds” with Exd/Hth-HM [5].

B7: motif-30 Hox1 mutant (dsDNA)
DNA 1: GAAACAGGAGAACCATAACTAATCC
DNA 2: GGATTAGTTATGGTTCTCCTGTTTC
In the case of B7, the binding result with AbdA (Hox);Exd/Hth-HM [6] was “binds”.

B8: motif-32 (dsDNA)
DNA 1: TTGCATGTGCGGATATATATATGTGGAACCACCTTG
DNA 2: CAAGGTGGTTCCACATATATATATCCGCACATGCAA
For B8, the binding result (in series [1]; in the series with AbdA (Hox);Exd/Hth-HM [2]; with Grh [3]; in the series with Exd/Hth-HM [5]) was “binds” in each case.

B9: motif-29 (Hox-Exd consensus) (dsDNA)
DNA 1: CTCAAGCGCGTGATGAATGTAATCTTCG
DNA 2: CGAAGATTACATTCATCACGCGCTTGAG
On to B9, for which the binding result was “binds” with AbdA (Hox);Exd/Hth-HM [2] and “no binding” with Grh [3].

B10: motif-30 WT (dsDNA)
DNA 1: GAAACAGGATAACCATAACTAATCC
DNA 2: GGATTAGTTATGGTTATCCTGTTTC
B10: the binding result in [1] is given as “binds”; with AbdA (Hox);Grh it was “binds”; with AbdA (Hox);Exd/Hth-HM [2] it was “binds”; with Grh [3], “binds”; with AbdA (Hox) [7], “binds”; with Exd/Hth-HM [8], “no binding”.

B11: motif-30 Hox1+2 mutant (dsDNA)
DNA 1: GAAACAGGAGAACCAGGACTAATCC
DNA 2: GGATTAGTCCTGGTTCTCCTGTTTC
Consider B11, for which the binding result (with AbdA (Hox) [4]; in series [1]; with AbdA (Hox);Grh; in the series with AbdA (Hox);Exd/Hth-HM [2]) was “no binding” throughout.

B12: motif-30 Grh2 mutant (dsDNA)
DNA 1: GAAACAGGATAACGATAACTAATCC
DNA 2: GGATTAGTTATCGTTATCCTGTTTC
Take B12: the binding result (with Grh [9]; in [10]) was “binds” throughout.

B13: motif-30 Exd mutant (dsDNA)
DNA 1: GAAACAGGATAACCATAACTGCTCC
DNA 2: GGAGCAGTTATGGTTATCCTGTTTC
With B13, the binding result was “no binding” in [1], “binds” in the series with AbdA (Hox);Grh, “no binding” with AbdA (Hox);Exd/Hth-HM [2] and “binds” with Grh [3].

The values are drawn from publication PMC5667929, “Combinatorial action of Grainyhead, Extradenticle and Notch in regulating Hox mediated apoptosis in Drosophila larval CNS”.
